Patent US20240043507A1 (RQ BIOTECHNOLOGY, published 2024)

B1: mAb 222 (antibody, V domains shown)
VH: EVQLVESGGGLIQPGGSLRLSCAASGLTVSSNYMSWVRQAPGKGLEWVSVIYSGGSTFYADSVKGRFTISRDNSKNTLYLQMNSLGAEDTAVYYCARGEGSPGNWFDPWGQGTLVTVSS
VL: DVVMTQSPGTLSLSPGERATLSCRASQSVPSSYLAWYQQKPGQAPRLLIYGASTRATGIPDRFSGSGSGTDFTLTISRLEPEDFAVYYCQHYDTSPRFGGGTKVDIK
B2: Fab of antibody 316 (Fab, V domains shown)
VH: not shown
VL: QAVLTQPPSASGSPGQSVTISCTGTSSDVGGYNYVSWYQQHPGKAPKLMIYEVSKRPSGVPDRFSGSKSGNTASLTVSGLQAEDEADYYCSSYAGSNHWVFGGGTKLTVL
notes: also called 316 Fab; Fab 316
B3: mAb 269 (antibody, V domains shown)
VH: QVQLVESGGGLIQPGGSLRLSCAASGLTVNRNYMSWIRQAPGKGLEWVSVIYSGGSTFYADSVKGRFTISRDNSKNTLSLQMNSLRAEDTAIYYCARDFYEGSFDIWGQGTMVTVSS
VL: AIQLTQSPSFLSASIGDRVTITCRASQGISSYLAWYQQKPGKAPKLLIYAASTLQSGVPSRFSGSGSGTEFTLTISSLQPEDFASYYCQQLNSYPAPVFGPGTKVDIK
B4: antibody 88, full-length IgG (antibody, V domains shown)
VH: QLQLQESGPGLVKPSQTLSLTCTVSGGSISSGSYNWTWIRQPAGKGLEWIGRIYNSGSTNYNPSLKSRVTISVDTSKNQLSLKVRSVTAADTAVYYCARHCSGGTCYPKYYYGMDVWGQGTTVTVSS
VL: QSALTQPPSVSEAPRQRVTISCSGSSSNIGNNAVNWYQQFPGKAPKLLIYYDDLLPSGVSDRFSGSKSGTSASLAISGVQSEDEADYYCAAWDDSLNVVVFGGGTKLTVL
notes: also called mAb 88; 88 IgG
B5: Fab of antibody 88 (Fab, V domains shown)
VH: B4 VH
VL: B4 VL
notes: also called 88 Fab; Fab 88
B6: mAb 45 (antibody, V domains shown)
VH: QVQLVESGGGVVQPGRSLRLSCAASGFTFSTYAMHWVRQAPGKGLEWVAVLSYDGSNKYYADSVKGRFTISRDNSKNTLYLQMNSLRAEDTAVYYCAKGGSYAYYYYMDVWGKGTTVTVSS
VL: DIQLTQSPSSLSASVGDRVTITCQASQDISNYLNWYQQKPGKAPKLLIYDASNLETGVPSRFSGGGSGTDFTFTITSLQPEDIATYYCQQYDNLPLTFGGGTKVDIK
notes: also called antibody 45
B7: mAb 165 (antibody, V domains shown)
VH: QVQLVQSGPEVKKPGTSVKVSCKASGFTFTSSAVQWVRQARGQRLEWIGWIVVGSGNTNYAQKFQESVTITRDMSTSTAYMELSSLRSEDTAVYYCAAPHCIGGSCHDAFDIWGQGTMVTVSS
VL: DIVMTQSPGTLSLSPGERATLSCRASQSVRSSYLAWYQQKPGQAPRLLIYGASRRGTGIPDRFSGSGSGTDFTLTISRLEPEDFAVYYCQQYGSSPWTFGQGTKVEIK
B8: mAb 175 (antibody, V domains shown)
VH: EVQLVESGGGLIQPGGSLRLSCAASGLTVSRNYMSWVRQAPGKGLEWVSLIYSGGSTYYADSVKGRFTISRDNSKNTLYLQMNSLRAEDTAVYYCARDLRGEVWGQGTMVTVSS
VL: not shown
B9: antibody 40, full-length IgG (antibody, V domains shown)
VH: QVQLVESGGGLVQPGGSLRLSCAVSGFTVSRNYMSWVRQAPGKGLEWVSLIYSGGSTFYADSVKGRFTISRDNSKNTLYLQMNSLRAEDTAVYYCARDLFHRSGYHDYWGQGTLVTVSS
VL: not shown
notes: also called mAb 40; 40 IgG
B10: Fab of antibody 40 (Fab, V domains shown)
VH: B9 VH
VL: not shown
notes: also called 40 Fab; Fab 40
B11: antibody 158, full-length IgG (antibody, V domains shown)
VH: EVQLLESGGDLIQPGGSLRLSCAASGVTVSSNYMSWVRQAPGKGLEWVSIIYPGGSTFYADSVKGRFTISRDNSKNTLYLQMHSLRAEDTAVYYCARDLGSGDMDVWGKGTTVTVSS
VL: DIVMTQSPSFLSASVGDRVTITCRASQGISSYLAWYQQKPGKAPKLLIQAASTLQSGVPSRFSGSGSGTEFTLTISSLQPEDFATYYCQQLNSYRYTFGQGTKVEIK
notes: also called mAb 158; 158 IgG
B12: Fab of antibody 158 (Fab, V domains shown)
VH: B11 VH
VL: B11 VL
notes: also called 158 Fab; Fab 158
B13: antibody 384, full-length IgG (antibody, V domains shown)
VH: EVQLVESGGGLVKPGESLRLSCAASGFTFSDYYMTWIRQAPGKGLEWVSYIRSSGHTIYYADSVKGRFTISRDNAKNSLYLQMNSLRVEDTAVYYCARGGVLRFLEWPLNAFDIWGQGTMVTVSS
VL: DIQLTQSPSSLSASVGDRVTITCRASQGISNYLAWYQQKPGKVPKLLIYAASTLQSGVPSRFSGSGSGTDFTLTISSLQPEDVATYYCQKYNNALGTFGQGTKVEIK
B14: mAb 318 (antibody, V domains shown)
VH: QVQLVQSGPEVKKPGTSVKVSCKASGFTLTSSAMQWVRQARGQRLEWIGWIVVGSGNTNYAQKFQERVTITRDMSTSTAYMELSSLRSEDTAVYYCAAGRGYNSDFDYWGQGTLVTVSS
VL: AIRMTQSPGTLSLSPGERATLSCRASQSVSSSYLAWYQQRPGQAPRLLIYGTSSRATGIPDRFSGSGSGTDFTLTISRLEPEDFAVYYCQQYGYSVYTFGQGTKVDIK
B15: antibody 150, full-length IgG (antibody, V domains shown)
VH: QVQLVESGGGLIQPGGSLRLSCAASGVTVSSNYMSWVRQAPGKGLEWVSIIYSGGTTYYADSVKGRFTISRDSSMNTLYLQMNSLRAEDTAVYYCARDLMVYGIDVWGQGTTVTVSS
VL: EIVMTQSPSSLSASVGDRVTITCRASQGISSYLAWYQQKPGKAPKLLIYAASTLQSGVPSRFSGSGSGTDFTLTISSLQPEDFATYYCQQLDSYPPGYTFGQGTKVDIK
B16: mAb 159 (antibody, V domains shown)
VH: EVQLVESGGGVVQPGRSLRLSCAASGFTFSSYGMHWVRQAPGKGLEWVALISYDGGNRYYADSVKGRFTISRDNSKNTLYLQMNRLRAEDTAMYYCAKDRDDGWDWYYFMDVWGKGTTVTVSS
VL: DIQLTQSPGTLSLSPGERATLSCRASQSISGNYLAWYQHKPGQAPRLLIYGASTRATGIPDRFSGSGSGTDFTLTISRLEPEDFAVYYCQQYGSSYTFGQGTKVEIK

Tests used:
[1] = molecular target: SARS-CoV-2 spike on whole virus (SARS-CoV-2/human/AUS/VIC01/2020, Victoria) (SARS-CoV-2, UniProt P0DTC2 14-1273); assay: cell-based or functional assay
[2] = molecular target: T1, SARS-CoV-2 spike protein on authentic virus, strain SARS-CoV-2/human/AUS/VIC01/2020 (Victoria) (SARS-CoV-2, UniProt P0DTC2 14-1273); assay: whole-virus capture ELISA, half-maximal binding
T1 construct: whole, on cells

[3] = molecular target: T1, SARS-CoV-2 spike protein on authentic …; assay: calculated from whole-virus ELISA binding and FRNT50
[4] = molecular target: T1, SARS-CoV-2 spike protein on authentic …; assay: cell-based or functional assay
[5] = molecular target: T2, SARS-CoV-2 receptor binding domain with N501Y (SARS-CoV-2, UniProt P0DTC2 330-532); assay: BLI, RBD immobilised on AR2G biosensor, 1:1 fit
T2 construct: range 330-532; also called RBD-N501Y; RBD N501Y

[6] = molecular target: SARS-CoV-2 spike protein on authentic virus, strain B.1.1.7 (SARS-CoV-2, UniProt P0DTC2 14-1273); assay: cell-based or functional assay
[7] = molecular target: T1, SARS-CoV-2 spike protein on authentic …; assay: cell-based or functional assay; remark: listed apart in the source

Binder | Neutralisation IC50 (FRNT) [1] [µg/mL] | Kd [2] [nM] | % Occupancy [3] [%] | Neutralisation IC50 [4] [nM] | IC50 (ug/ml), FRNT [6] [µg/mL] | other results
B1 | 0.016 | – | – | – | – | –
B2 | – | 8.76 | 74 | 27.6 | – | Kd [5]: 2.81 nM
B3 | 0.036 | – | – | – | – | –
B4 | – | 0.25 | 21.9 | 0.07 | 0.058 | IC50 (ug/ml), FRNT [7]: 0.033 µg/mL
B5 | – | 1.21 | 85.2 | 6.95 | – | Kd [5]: 0.65 nM
B6 | 2 | – | – | – | – | –
B7 | 0.021 | – | – | – | – | –
B8 | 0.033 | – | – | – | – | –
B9 | – | 0.33 | 33.3 | 0.16 | 0.035 | IC50 (ug/ml), FRNT [7]: 0.026 µg/mL
B10 | – | 1.23 | 97.4 | 45.7 | – | Kd [5]: 0.97 nM
B11 | – | 0.5 | 20.5 | 0.13 | 0.254 | IC50 (ug/ml), FRNT [7]: 0.031 µg/mL
B12 | – | 3.73 | 52.7 | 4.12 | – | Kd [5]: 1.57 nM
B13 | – | – | – | – | 0.005 | –
B14 | 0.015 | – | – | – | – | –
B15 | – | – | – | – | 0.139 | B.1.1.7/Victoria Ratio of IC50 [6]: 12
B16 | 0.005 | – | – | – | – | –
